# From patent US20140363844
# T1: Presegetalin L1[14,32]
# T1 chain: GLPGWPFQAKDVENASAPV
# T2: Presegetalin A1[14,32]Q21A
# T2 chain: GVPVWAFAAKDVENASAPV
# T3: Presegetalin A1[14,32] P16p W18a
# T3 chain: GVPVAAFQAKDVENASAPV
# T4: Presegetalin A1[14,32]G14A
# T4 chain: AVPVWAFQAKDVENASAPV
# T5: Presegetalin J1[14,36]
# T5 chain: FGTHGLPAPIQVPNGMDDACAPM
# T6: Presegetalin A1[14,32] ins 16AAA17
# T6 chain: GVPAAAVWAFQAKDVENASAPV
# T7: Presegetalin A1[14,32]P31A
# T7 chain: GVPVWAFQAKDVENASAAV
# T8: Presegetalin A1[14,32]V17A
# T8 chain: GVPAWAFQAKDVENASAPV
# T9: Presegetalin A1[14,19]
# T9 chain: GVPVWA
# T10: Presegetalin D1[14,31]P20Q
# T10 chain: GLSFAFQAKDAENASSPV
# How the values were obtained:
# Presegetalin L1[14,32] = target: T1, Presegetalin L1[14,32]
# [1] = target: T2, Presegetalin A1[14,32]Q21A
# [2] = target: T3, Presegetalin A1[14,32] P16p W18a
# [3] = target: T4, Presegetalin A1[14,32]G14A
# Presegetalin J1[14,36] = target: T5, Presegetalin J1[14,36]
# [4] = target: T6, Presegetalin A1[14,32] ins 16AAA17
# [5] = target: T7, Presegetalin A1[14,32]P31A
# [6] = target: T8, Presegetalin A1[14,32]V17A
# Presegetalin A1[14,19] = target: T9, Presegetalin A1[14,19]
# [7] = target: T10, Presegetalin D1[14,31]P20Q
protein,measurement,setting,value
"Saponaria vaccaria PCY1 (recombinant, N-terminal His6-tag, expressed in E. coli from pCB008) (protein) MATSGFSKPLHYPPVRRDETVVDDYFGVKVADPYRWLEDPNSEETKEFVDNQEKLANSVLEECELIDKFKQKIIDFVNFPRCGVPFRRANKYFHFYNSGLQAQNVFQMQDDLDGKPEVLYDPNLREGGRSGLSLYSVSEDAKYFAFGIHSGLTEWVTIKILKTEDRSYLPDTLEWVKFSPAIWTHDNKGFFYCPYPPLKEGEDHMTRSAVNQEARYHFLGTDQSEDILLWRDLENPAHHLKCQITDDGKYFLLYILDGCDDANKVYCLDLTKLPNGLESFRGREDSAPFMKLIDSFDASYTAIANDGSVFTFQTNKDAPRKKLVRVDLNNPSVWTDLVPESKKDLLESAHAVNENQLILRYLSDVKHVLEIRDLESGALQHRLPIDIGSVDGITARRRDSVVFFKFTSILTPGIVYQCDLKNDPTQLKIFRESVVPDFDRSEFEVKQVFVPSKDGTKIPIFIAARKGISLDGSHPCEMHGYGGFGINMMPTFSASRIVFLKHLGGVFCLANIRGGGEYGEEWHKAGFRDKKQNVFDDFISAAEYLISSGYTKARRVAIEGGSNGGLLVAACINQRPDLFGCAEANCGVMDMLRFHKFTLGYLWTGDYGCSDKEEEFKWLIKYSPIHNVRRPWEQPGNEETQYPATMILTADHDDRVVPLHSFKLLATMQHVLCTSLEDSPQKNPIIARIQRKAAHYGRATMTQIAEVADRYGFMAKALEAPWID",CP (cyclic peptide product detected by LC/MS),"Presegetalin L1[14,32]",+
same,LP (linear peptide product detected by LC/MS),"Presegetalin L1[14,32]",-
same,CP (cyclic peptide product detected by LC/MS),[1],+
same,LP (linear peptide product detected by LC/MS),[1],+
same,linear segetalin A production relative to WT substrate,[1],a relative increase in production of linear segetalin A from all mutant substrates except with No. 13 and No. 14
same,segetalin A production relative to WT substrate,[1],"positions were found to be sensitive to substitution ... position 20, 21, 23, 24, 27, 28 and 31"
same,CP (cyclic peptide product detected by LC/MS),[2],+
same,LP (linear peptide product detected by LC/MS),[2],-
same,CP (cyclic peptide product detected by LC/MS),[3],+
same,LP (linear peptide product detected by LC/MS),[3],+
same,linear peptide product in LC/MS,[3],the highest amount of linear peptide product was detected with No. 7
same,relative intensity of cyclic peptide product in LC/MS,[3],makes less product (cyclic peptide) with the substitution of glycine to alanine at the first position in segetalin A (No. 7) than with No. 8 to 11
same,CP (cyclic peptide product detected by LC/MS),"Presegetalin J1[14,36]",+
same,LP (linear peptide product detected by LC/MS),"Presegetalin J1[14,36]",-
same,CP (cyclic peptide product detected by LC/MS),[4],+
same,LP (linear peptide product detected by LC/MS),[4],+
same,CP (cyclic peptide product detected by LC/MS),[5],+
same,LP (linear peptide product detected by LC/MS),[5],+
same,linear segetalin A production relative to WT substrate,[5],showed a relative increase in production of linear segetalin A
same,segetalin A production relative to WT substrate,[5],the P31A mutant (No. 24 in Table 3) was found to yield […]11 times less segetalin A than that produced from the WT substrate
same,CP (cyclic peptide product detected by LC/MS),[6],+
same,LP (linear peptide product detected by LC/MS),[6],+
same,CP (cyclic peptide product detected by LC/MS),"Presegetalin A1[14,19]",-
same,CP (cyclic peptide product detected by LC/MS),[7],+
same,LP (linear peptide product detected by LC/MS),[7],-
same,cyclic peptide product (LC/MS),[7],"resulted in a 5 amino acid cyclic peptide product (cyclo(GLSFA); SEQ ID NO: 77), and the substituted glutamine was not part of the final cyclic peptide"
